T1: Fusion protein of LAG-3 extracellular region and mIgG2a Fc (human)
T1 construct: Limits of the signal peptide are marked only by lost underlining; also called LAG-3-mFc; LAG-3-mFc fusion protein
T1 chain: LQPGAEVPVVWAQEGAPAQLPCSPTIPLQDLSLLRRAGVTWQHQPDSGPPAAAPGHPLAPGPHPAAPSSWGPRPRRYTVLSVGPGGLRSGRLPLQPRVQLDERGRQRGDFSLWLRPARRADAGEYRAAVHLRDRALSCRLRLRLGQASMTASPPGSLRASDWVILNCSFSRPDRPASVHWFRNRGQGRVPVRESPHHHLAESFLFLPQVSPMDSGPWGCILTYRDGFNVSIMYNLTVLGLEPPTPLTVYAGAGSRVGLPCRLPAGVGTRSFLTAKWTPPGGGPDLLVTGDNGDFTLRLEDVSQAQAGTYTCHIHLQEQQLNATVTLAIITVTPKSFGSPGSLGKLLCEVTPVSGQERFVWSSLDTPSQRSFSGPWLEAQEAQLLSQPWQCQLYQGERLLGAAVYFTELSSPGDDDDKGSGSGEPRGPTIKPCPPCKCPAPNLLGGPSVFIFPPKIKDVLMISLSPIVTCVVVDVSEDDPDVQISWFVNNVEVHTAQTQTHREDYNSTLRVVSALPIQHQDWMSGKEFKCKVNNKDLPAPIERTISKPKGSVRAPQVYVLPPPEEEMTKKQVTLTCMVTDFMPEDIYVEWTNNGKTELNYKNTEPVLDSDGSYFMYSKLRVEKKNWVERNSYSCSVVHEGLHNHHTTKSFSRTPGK


What was measured:
[1] = target: T1, Fusion protein of LAG-3 extracellular …; experiment: ELISA, LAG-3-mFc captured by anti-mouse Fc on plate (which fusion: inferred)
Source text: The binding ability of anti-LAG-3 antibody to human LAG-3 protein was detected by ELISA assay. LAG-3 fusion protein with Fc or mFc tag was immobilized into 96-well microtiter plate by binding to anti-Fc or anti-mFc antibody coated on the microtiter plate, the strength of the signal after the addition of the antibody was used to determine the binding activity of the antibody to LAG-3, the specific experimental method is as follows.
The goat anti-human Fc antibody (Jackson Immuno Research, Cat No. 109-005-008) or goat anti-mouse Fc antibody (Sigma, Cat No. M3534-1ML) was diluted to a concentration of 2 μg/ml with PBS buffer at pH 7.4 (Sigma, Cat No. P4417-100TAB), and added to a 96-well plate at a volume of 50 μl/well and then, the plate was incubated in the incubator at 37° C. for 2 hours. After discarding the liquid, the plates were blocked with 200 μl/well of blocking solution containing 5% skim milk (Bright Dairy, skim milk powder) in PBS, and incubated in the incubator at 37° C. for 2.5 hours or overnight at 4° C. (16-18 hours). After blocking, the blocking solution was discarded and the plate was washed 5 times with PBST buffer (PH7.4 PBS containing 0.05% tween-20). LAG-3-Fc fusion protein (SEQ ID NO:3, produced in-house) or LAG-3-mFc fusion protein (SEQ ID NO: 4, produced in-house) was diluted with sample diluent (PH7.4 PBS containing 1% BSA) to 1 μg/ml and was added to each well, 50 μl/well. Then the plate was incubated in the incubator at 37° C. for 1 h or overnight at 4° C. After incubation, the reaction solution in the plate was discarded, and the plate was washed with PBST for 6 times, and then was added with 50 μl/well of various concentrations of antibodies to be tested (hybridoma purified antibody or humanized antibody) which have been diluted with sample diluent, and the plate was incubated at 37° C. for 1 h. The plates was washed 5 times with PBST after incubation, and was added with 100 μl/well of goat anti-mouse (Jackson Immuno Research, Cat No. 115-035-003) or goat anti-human secondary antibody (Jackson Immuno Research, Cat No. 109-035-003) labeled with HRP, diluted in sample diluent, and the plate was incubated at 37° C. for 1 h.

[2] = target: T2, Fusion protein of LAG-3 extracellular region and hIgG1 Fc (human); experiment: competition: biotin-LAG-3-Fc binding to fixed Daudi cells, antibody titrated
T2 construct: Limits of the signal peptide are marked only by lost underlining; also called LAG-3-Fc; LAG-3-Fc fusion protein
Procedure: Daudi cells (human leukemia cells, purchased from the cell bank in Chinese Academy of Sciences) were seeded in 96-well plate with a density of 3×10⁵/well. After centrifugation at 1000 rpm, the supernatant was discarded and then the plate was fixed with 4% PFA for 30 min at room temperature. The plate was washed 4 times with PBS after discarding the fixed solution, and the plate was blocked with 200 μl/well of blocking solution containing 5% skim milk (Bright Dairy, skim milk powder) diluted in PBS, and incubated at 37° C. for 2.5 hours. After blocking, the blocking solution was discarded and the plate was washed 5 times with PBST buffer (pH7.4 PBS containing 0.05% tween-20), added with 50 μl/well mixture of biotin-labeled (Biotin labeling kit, Dojindo Chemical, Cat No. LK03) LAG-3-Fc fusion protein (produced in-house, SEQ ID NO: 3) and gradient concentrations of the antibody to be tested, wherein the biotin-labeled LAG-3-Fc fusion protein has been diluted with sample diluent (PH7.4 PBS containing 1% BSA) at a final concentration of 0.4 μg/ml, and pre-mixed for an hour, then the plate was incubated at 37° C. for 1 h. The reaction solution was discarded and the plate was washed 5 times with PBST after incubation, 50 μl/well of HRP-labeled Streptavidin (Sigma, Cat No. 52438) diluted with sample diluent was added, and the plate was incubated at 37° C. for 1 h. After washing the plate 5 times with PBST, 50 μl/well of TMB chromogenic substrate (KPL, Cat No. 52-00-03) was added to each well, and incubated at room temperature for 5-15 min, the reaction was stopped by the addition of 50 μl 1M H₂SO₄ to each well. The OD value at a wavelength of 450 nm was read on NOVOStar microplate reader, and then the activity of the LAG-3 antibody in blocking the binding of the antigen to Daudi cells was calculated.

| Binder | EC50 [1] [nM] | IC50 [2] [nM] |
| --- | --- | --- |
| Hu229-008 (antibody, human IgG4 S228P, kappa, V domains shown, Humanized mAb229) VH: QVQLVQSGSELKKPGASVKVSCKASGYTFTTSGMSWVRQAPGQGLKWMGWINTYSGVPTYADDFKGRFVFSLDTSVSTAYLQISSLKAEDTAVYYCARDNYDARDVYYYAMDYWGQGTTVTVSS VL: DIQMTQSPSSLSASVGDRVTITCRASENIYSNLAWYQQKPGKAPKLLIYAATNLADGVPSRFSGSGSGTDFTLTISSLQPEDFATYYCQHFWITPWTFGGGTKVEIKR | 0.506 |  |
| Hu229-012 (antibody, human IgG4 S228P, kappa, V domains shown, Humanized mAb229) VH: QVQLVQSGSELKKPGASVKVSCKASGYTFTTSGMSWVKQAPGQGLKWMGWINTYSGVPTYADDFKGRFVFSLDTSVSTAYLQISSLKAEDTATYYCARDNYDARDVYYYAMDYWGQGTTVTVSS VL: DIQMTQSPSSLSASVGDRVTITCRASENIYSNLAWYQQKPGKAPKLLIYAATNLADGVPSRFSGSGSGTDFTLTISSLQPEDFATYYCQHFWITPWTFGGGTKVEIKR | 0.268 |  |
| Hu303-011 (antibody, human IgG4 S228P, kappa, V domains shown, Humanized mAb303) VH: QVQLVQSGAEVKKPGASVKVSCKASGYTFTDYYMNWVRQAPGQRLEWMGVINPYNGDTAYNQKFKGRVTITVDKSASTAYMELSSLRSEDTAVYYCTRDDGYYDYYFDVWGQGTTVTVSS VL: DIQMTQSPSSLSASVGDRVTITCRASQDIGSRLNWYQQKPGKAPKRLIYATSTLDSGVPKRFSGSRSGTDFTLTISSLQPEDFATYYCLQLASSPPTFGGGTKVEIKR | 0.314 | 0.728 |
| Hu303-018 (antibody, human IgG4 S228P, kappa, V domains shown, Humanized mAb303) VH: QVQLVQSGAEVKKPGASVKVSCKASGYTLTDYYMNWVRQAPGQRLEWMGVINPYNGDTAYNQKFKGRVTITVDKSASTAYMELSSLRSEDTAVYYCTRDDGYYDYYFDVWGQGTTVTVSS VL: DIQMTQSPSSLSASVGDRVTLTCRASQDIGSRLNWLQQKPGGAFKRLIYATSTLDSGVPKRFSGSRSGTDFTLTISSLQPEDFADYYCLQLASSPPTFGGGTKVEIKR | 0.244 | 0.608 |
| Hu303-015 (antibody, human IgG4 S228P, kappa, V domains shown, Humanized mAb303) VH: QVQLVQSGAEVKKPGASVKVSCKASGYTLTDYYMNWVRQAPGQRLEWMGVINPYNGDTAYNQKFKGRVTITVDKSASTAYMELSSLRSEDTAVYYCTRDDGYYDYYFDVWGQGTTVTVSS VL: DIQMTQSPSSLSASVGDRVTITCRASQDIGSRLNWYQQKPGKAPKRLIYATSTLDSGVPSRFSGSRSGTDFTLTISSLQPEDFATYYCLQLASSPPTFGGGTKVEIKR | 0.172 | 0.398 |
| Hu303-019 (antibody, human IgG4 S228P, kappa, V domains shown, Humanized mAb303) VH: QVQLVQSGAEVKKPGASVKVSCKASGYTLTDYYMNWVRQAPGQRLEWIGVINPYNGDTAYNQKFKGRATLTVDKSASTAYMELSSLRSEDTAVYYCTRDDGYYDYYFDVWGQGTTVTVSS VL: DIQMTQSPSSLSASVGDRVTITCRASQDIGSRLNWYQQKPGKAPKLLIYATSTLDSGVPSRFSGSGSGTDFTLTISSLQPEDFATYYCLQLASSPPTFGGGTKVEIKR | 0.277 | 0.471 |
| Hu303-021 (antibody, human IgG4 S228P, kappa, V domains shown, Humanized mAb303) VH: QVQLVQSGAEVKKPGASVKVSCKASGYTLTDYYMNWVRQAPGQRLEWIGVINPYNGDTAYNQKFKGRATLTVDKSASTAYMELSSLRSEDTAVYYCTRDDGYYDYYFDVWGQGTTVTVSS VL: DIQMTQSPSSLSASVGDRVTITCRASQDIGSRLNWYQQKPGKAPKRLIYATSTLDSGVPKRFSGSRSGTDFTLTISSLQPEDFATYYCLQLASSPPTFGGGTKVEIKR | 0.17 | 0.456 |

Second part, the binder after the results:

| EC50 [1] [nM] | IC50 [2] [nM] | Binder |
| --- | --- | --- |
| 0.14 | 0.345 | Hu303-020 (antibody, human IgG4 S228P, kappa, V domains shown, Humanized mAb303) VH: QVQLVQSGAEVKKPGASVKVSCKASGYTLTDYYMNWVRQAPGQRLEWIGVINPYNGDTAYNQKFKGRATLTVDKSASTAYMELSSLRSEDTAVYYCTRDDGYYDYYFDVWGQGTTVTVSS VL: DIQMTQSPSSLSASVGDRVTITCRASQDIGSRLNWYQQKPGKAPKRLIYATSTLDSGVPSRFSGSRSGTDFTLTISSLQPEDFATYYCLQLASSPPTFGGGTKVEIKR |
| 0.166 | 0.347 | Hu303-013 (antibody, human IgG4 S228P, kappa, V domains shown, Humanized mAb303) VH: QVQLVQSGAEVKKPGASVKVSCKASGYTFTDYYMNWVRQAPGQRLEWMGVINPYNGDTAYNQKFKGRVTITVDKSASTAYMELSSLRSEDTAVYYCTRDDGYYDYYFDVWGQGTTVTVSS VL: DIQMTQSPSSLSASVGDRVTLTCRASQDIGSRLNWLQQKPGGAFKRLIYATSTLDSGVPKRFSGSRSGTDFTLTISSLQPEDFADYYCLQLASSPPTFGGGTKVEIKR |
| 0.135 | 0.343 | Hu303-007 (antibody, human IgG4 S228P, kappa, V domains shown, Humanized mAb303) VH: QVQLVQSGAEVKKPGASVKVSCKASGYTFTDYYMNWVRQAPGQRLEWMGVINPYNGDTAYNQKFKGRVTITRDTSASTAYMELSSLRSEDTAVYYCARDDGYYDYYFDVWGQGTTVTVSS VL: DIQMTQSPSSLSASVGDRVTITCRASQDIGSRLNWLQQKPGKAFKRLIYATSTLDSGVPKRFSGSRSGTDFTLTISSLQPEDFATYYCLQLASSPPTFGGGTKVEIKR |
| 0.14 | 0.346 | Hu303-008 (antibody, human IgG4 S228P, kappa, V domains shown, Humanized mAb303) VH: QVQLVQSGAEVKKPGASVKVSCKASGYTFTDYYMNWVRQAPGQRLEWMGVINPYNGDTAYNQKFKGRVTITRDTSASTAYMELSSLRSEDTAVYYCARDDGYYDYYFDVWGQGTTVTVSS VL: DIQMTQSPSSLSASVGDRVTLTCRASQDIGSRLNWLQQKPGGAFKRLIYATSTLDSGVPKRFSGSRSGTDFTLTISSLQPEDFADYYCLQLASSPPTFGGGTKVEIKR |
| 0.164 | 0.361 | Hu303-012 (antibody, human IgG4 S228P, kappa, V domains shown, Humanized mAb303) VH: QVQLVQSGAEVKKPGASVKVSCKASGYTFTDYYMNWVRQAPGQRLEWMGVINPYNGDTAYNQKFKGRVTITVDKSASTAYMELSSLRSEDTAVYYCTRDDGYYDYYFDVWGQGTTVTVSS VL: DIQMTQSPSSLSASVGDRVTITCRASQDIGSRLNWLQQKPGKAFKRLIYATSTLDSGVPKRFSGSRSGTDFTLTISSLQPEDFATYYCLQLASSPPTFGGGTKVEIKR |
| 0.168 | 0.398 | Hu303-017 (antibody, human IgG4 S228P, kappa, V domains shown, Humanized mAb303) VH: QVQLVQSGAEVKKPGASVKVSCKASGYTLTDYYMNWVRQAPGQRLEWMGVINPYNGDTAYNQKFKGRVTITVDKSASTAYMELSSLRSEDTAVYYCTRDDGYYDYYFDVWGQGTTVTVSS VL: DIQMTQSPSSLSASVGDRVTITCRASQDIGSRLNWLQQKPGKAFKRLIYATSTLDSGVPKRFSGSRSGTDFTLTISSLQPEDFATYYCLQLASSPPTFGGGTKVEIKR |

From US20220031842A1 (JIANGSU HENGRUI MEDICINE, published 2022)
